# Experimental data: patent JP2012050437A
# Target: soluble Aβ1-42 (125I-labelled) (human) (UniProt P05067)
# Assay: capture radioimmunoassay, 50,000 CPM 125I-Aβ1-42, antibody at 10 µg/ml
substance,measurement,value
murine monoclonal antibody 10D5 (isotype IgG1),percent of radioactive counts bound at 10 µg/ml,2%
